The text below walks through data of US11124779B2, “Compositions and methods for treating and preventing pancreatitis, renal injury and cancer” (Yale University, priority 2014, dated 2021).

In test [1] the test system is HK-2 cells. The experiment in a line: In vitro model of cisplatin toxicity: HK-2 cell survival by the WST-1 method. It is filed as cell-based, human. Particulars: 20 μM cisplatin, 24 hrs; test substance 80 μg/ml. How it is done:
FIG. 1B is a graph depicting the effect of renalase peptides on survival of HK-2 cells exposed to 20 μM cisplatin for 24 hrs; cell survival is depicted as % change in survival compared to that in cisplatin-treated HK-2 cells without renalase peptides; cell survival was measured by the WST-1 method; RP-A220: mutated RP-220, and RP-19 and RP-128: control peptides; peptide concentration (μg/ml) indicated in top line; n=4, *=p<0.05. […]
HK-2 cells (human proximal tubular line) obtained from ATTC (Manassas, Va., USA) were cultured in DMEM/F12 supplemented with glutamine, 10% FBS and antibiotics, and were maintained at 37° C. in 5% CO2. Cells were exposed to cisplatin (20 μM) in the presence or absence of recombinant renalase or renalase peptides for 24 hrs, and cell viability was assessed by the WST1 method (Roche Applied Science, Germany).
A general note: Tetrazolium dyes change colour on reduction, which living cells bring about.

Test [2] deals with mice. The settings on record: literature (Lee et al., 2013; Wang et al., 2014); cited from earlier work.
The target of test [3] is T1, PMCA (Mus musculus, UniProt Q6Q477).
T1 sequence (Q6Q477 1-1205): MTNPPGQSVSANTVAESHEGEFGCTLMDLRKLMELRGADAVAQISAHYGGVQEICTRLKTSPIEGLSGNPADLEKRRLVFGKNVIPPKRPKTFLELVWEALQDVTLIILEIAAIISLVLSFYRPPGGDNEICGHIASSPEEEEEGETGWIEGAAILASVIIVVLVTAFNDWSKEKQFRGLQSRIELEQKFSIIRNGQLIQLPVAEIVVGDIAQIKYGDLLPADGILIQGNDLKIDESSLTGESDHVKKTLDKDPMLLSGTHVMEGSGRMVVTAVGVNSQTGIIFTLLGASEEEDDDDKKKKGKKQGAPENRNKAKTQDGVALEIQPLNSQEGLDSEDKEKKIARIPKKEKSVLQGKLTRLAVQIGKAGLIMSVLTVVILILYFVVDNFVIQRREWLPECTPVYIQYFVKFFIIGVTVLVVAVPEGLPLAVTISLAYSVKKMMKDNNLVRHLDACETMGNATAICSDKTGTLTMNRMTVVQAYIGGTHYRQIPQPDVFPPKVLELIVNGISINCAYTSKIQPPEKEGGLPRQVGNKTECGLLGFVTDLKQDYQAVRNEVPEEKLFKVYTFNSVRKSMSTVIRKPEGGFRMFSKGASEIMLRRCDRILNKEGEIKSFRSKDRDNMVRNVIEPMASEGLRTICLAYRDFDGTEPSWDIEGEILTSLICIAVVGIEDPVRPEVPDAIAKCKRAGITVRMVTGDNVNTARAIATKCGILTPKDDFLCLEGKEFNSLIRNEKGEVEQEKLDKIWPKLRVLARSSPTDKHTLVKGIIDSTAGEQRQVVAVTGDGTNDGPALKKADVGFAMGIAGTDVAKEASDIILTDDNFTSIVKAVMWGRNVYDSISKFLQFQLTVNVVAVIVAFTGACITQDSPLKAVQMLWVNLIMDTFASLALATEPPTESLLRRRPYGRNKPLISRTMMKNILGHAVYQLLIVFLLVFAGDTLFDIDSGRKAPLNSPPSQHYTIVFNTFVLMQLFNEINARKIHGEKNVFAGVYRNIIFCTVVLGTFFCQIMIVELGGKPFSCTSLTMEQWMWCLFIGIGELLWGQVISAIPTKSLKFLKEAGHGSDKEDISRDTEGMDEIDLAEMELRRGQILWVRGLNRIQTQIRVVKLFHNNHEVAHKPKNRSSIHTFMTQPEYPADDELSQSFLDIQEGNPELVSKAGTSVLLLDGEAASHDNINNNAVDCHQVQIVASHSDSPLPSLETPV
The experiment in a line: Ca2+ efflux through PMCA, time lapse confocal microscopy, mouse acinar cells. The class given is cell-based. As to the method: FIGS. 12A-12F, depict the results of experiments showing renalase increases Ca^2+ efflux through PCMA. Changes in whole cell cytosolic Ca^2+ were recorded with the Ca^2+ dye Fluo-4 (HK2 cells) or Fluo-5 (acinar cell) by time lapse confocal microscopy. FIGS. 12A, 12B, 12D, and 12E are representative plots of fluorescence over time in HK2 cells (FIGS. 12A and 12B) or mouse acinar cells (FIGS. 12D and 12E). Cells were pretreated with 30 μM cyclopiazonic acid and perfused with Ca^2+-free medium. Cells were briefly stimulated with 10 nM angiotensin IV (Ang in HK2 cells) or 100 nM cerulein (Cer in acinar cells) in the presence of 1.3 mM Ca^2+. […] For FIGS. 12C and 12F, the rate of Ca^2+ efflux was quantified from 30 cells/treatment group. *p<0.05 vs. no renalase. […]
PMCA selectively binds renalase (FIG. 6). […] Since the protective effects of renalase were first characterized in HK-2 cells (human kidney cell line) (Lee et al., 2013, J Am Soc Nephrol 24, 445-455; Wang et al., 2014, Journal of the American Society of Nephrology: JASN), its effects on Ca^2+ signals were evaluated in these cells and subsequently in mouse acinar cells (FIG. 12). […] Perfusion buffer was then switched back to Ca^2+-free medium in the presence or absence of renalase, and cytosolic Ca^2+ levels were monitored over time and the rates of Ca^2+ efflux were calculated (FIG. 12). […]

Entries after “also recorded” stand apart in the source; their conditions may differ.

B1: recombinant renalase: recombinant full-length human renalase, secretory flavoprotein oxidase; synthesized as in Desir et al., 2012; SEQ ID NO: 8 or 9 (protein)
chain: ALLRRQTSGPLYLAVWDKAEDSGGRMTTACSPHNPQCTADLGAQYITCTPHYAKKHQRFYDELLAYGVLRPLSSPIEGMVMKEGDCNFVAPQGISSIIKHYLKESGAEVYFRHRVTQINLRDDKWEVSKQTGSPEQFDLIVLTMPVPEILQLQGDITTLISECQRQQLEAVSYSSRYALGLFYEAGTKIDVPWAGQYITSNPCIRFVSIDNKKRNIESSEIGPSLVIHTTVPFGVTYLEHSIEDVQELVFQQLENILPGLPQPIATKCQKWRHSQVTNAAANCPGQMTLHHKPFLACGGDGFTQSNFDGCITSALCVLEALKNYI
B1: the “survival of HK-2 cells exposed to cisplatin (protective effect)” value in test [1] is given as “protected HK-2 cells to a similar degree”. For the same molecule, the “ischemic acute kidney injury (AKI)” value in test [2] is “significantly attenuates; also recorded: protects mice against ischemic AKI”. Besides, the “baseline Ca2+ levels” value in test [3] is reported as “did not change”. Besides, in test [3] (100 nM cerulein, Ca2+-free medium, cyclopiazonic acid), the “rate of Ca2+ efflux” value is “increased”.
